This note sets out measurements from patent US20240076386A1 (Pfizer, published 2024).

Assay [1] concerns the target T1, soluble recombinant human E-selectin (R & D Systems, ADP1) (human, UniProt P16581 22-556).
T1 sequence (looked up): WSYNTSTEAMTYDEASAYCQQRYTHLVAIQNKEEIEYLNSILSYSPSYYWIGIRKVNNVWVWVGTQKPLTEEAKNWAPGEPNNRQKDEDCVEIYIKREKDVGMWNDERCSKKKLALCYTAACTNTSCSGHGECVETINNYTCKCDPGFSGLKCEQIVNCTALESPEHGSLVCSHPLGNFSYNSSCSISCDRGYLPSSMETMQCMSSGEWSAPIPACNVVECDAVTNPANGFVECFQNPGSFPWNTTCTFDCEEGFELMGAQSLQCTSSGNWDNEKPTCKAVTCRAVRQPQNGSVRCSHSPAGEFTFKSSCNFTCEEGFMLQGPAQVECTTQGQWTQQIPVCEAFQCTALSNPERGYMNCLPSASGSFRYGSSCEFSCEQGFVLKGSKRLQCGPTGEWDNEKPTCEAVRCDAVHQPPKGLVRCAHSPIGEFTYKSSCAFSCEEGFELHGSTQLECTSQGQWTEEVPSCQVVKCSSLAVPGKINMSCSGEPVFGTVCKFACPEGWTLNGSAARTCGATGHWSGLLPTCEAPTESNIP
Nature of the assay: cell-based or functional assay.

Assay [2] deals with T2, human E-selectin extracellular domain with 10 His purification tail (human, UniProt P16581 22-556).
T2 construct: also called soluable human E-selectin extracellular domain; rhE-Selectin
T2 sequence: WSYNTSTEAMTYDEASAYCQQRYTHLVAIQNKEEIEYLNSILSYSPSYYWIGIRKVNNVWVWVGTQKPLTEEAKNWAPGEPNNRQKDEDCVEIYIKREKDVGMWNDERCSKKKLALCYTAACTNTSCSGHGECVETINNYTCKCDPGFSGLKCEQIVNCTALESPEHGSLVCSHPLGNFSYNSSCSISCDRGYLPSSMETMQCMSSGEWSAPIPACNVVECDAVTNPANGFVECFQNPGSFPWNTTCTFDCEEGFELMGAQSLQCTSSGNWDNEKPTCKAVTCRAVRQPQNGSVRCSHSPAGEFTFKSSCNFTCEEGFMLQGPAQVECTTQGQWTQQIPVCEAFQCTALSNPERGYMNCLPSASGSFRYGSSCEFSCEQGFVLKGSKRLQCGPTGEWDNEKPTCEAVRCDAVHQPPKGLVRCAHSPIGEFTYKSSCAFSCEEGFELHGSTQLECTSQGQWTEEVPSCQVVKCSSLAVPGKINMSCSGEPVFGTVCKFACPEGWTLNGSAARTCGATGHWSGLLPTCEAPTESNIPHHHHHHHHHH
Description: SPR, antibody captured, E-selectin analyte. The procedure: To characterize binding of antibodies to human, cynomolgus monkey, and mouse E-selectin, an antibody was diluted to 0.5 μg/mL in HBS-EP+ and captured by the anti-human IgG immobilized on flow cells 2, 3 and 4 for 30 seconds to 1 minute at a flow rate of 10 μL/minute to achieve a capture level of 70 to 300 RU. Flow cell 1 was used as a reference surface. […] HBS-EP+ buffer cycles collected for each captured antibody were used for double-referencing (Myszka D G. J. Mol. Recognition 1999; 12(5):279-84). At the end of each cycle, the entire anti-IgG surface was regenerated by a 30 second pulse of 3 M MgCl₂ and a 30 second pulse of ionic buffer (1.83 M MgCl₂, 0.92 M Urea, 1.83 M Guanidine HCl, pH 7.4) (Andersson K. Analy. Chem. 1999; 71(13): 2475-81). Kinetic assays were conducted at 25° C. at a collection rate of 10 Hertz (Hz) on a BIAcore™ T200 instrument (GE Healthcare). Rate constants and affinities were determined by fitting the data to a 1:1 binding model in BIAcore™ T200 Evaluation software version 3.0 (GE Healthcare).
On the technique in general: Surface plasmon resonance follows binding to a sensor surface in real time, without labels.

B1: anti-E-selectin antibody 0039 chimera (antibody, human IgG1, kappa, V domains shown)
VH: QVQLKETGPGLVQPTQTLSITCTVSGFSLTGYYMQWVRQTPGKGLEWMGFIRSSGSTEYNSEFKSRLSISRDTSKNQVFLKMNSLKTEDTGVYYCARCPYKYSSFVYVGVMDAWGQGAPVTVSS
VL: EIVMTQSPTSMSTSIGERVTLNCKASQTVGINVDWYQQTPGQPPKLLIYGASNRHTGVPDRFTGSGFGRDFTLTISNVEAEDLAVYCCLQYGSIPHTFGPGTKLELKR
notes: rat VH/VL on effector-null human IgG1 and human kappa
Regarding B1, in assay [1], the “neutralization of HL-60 cell binding under physiological flow to soluble human E-selectin protein IC50 (nM)” value stood at 265 nM. In assay [2], this molecule displayed a dissociation constant Kd of 68 nM, a koff of 0.00421 s⁻¹, a kon of 64200 M⁻¹ s⁻¹ and a t½ of 174 s.

B2: anti-E-selectin antibody 0158 chimera (antibody, human IgG1, kappa, V domains shown)
VH: QVQLKESGPGLVQPSETLSLTCTVSGFSISTYNVHWLRQPPGKGLEWMGMMWSGGSPDYNSALKSRLSISRDTSKNQVFLKMNSLQSEDTTTYYCARWGGGFDYWGQGVMVTVSS
VL: DIVLTQSPTTLSVTPGETVSLSCRASHSIGTNLHWYQQKTNESPRLLIKFTSQSISGIPSRFSASGSGTDFTLNINNVEFDDVSSYFCQQTQSWPLTFGSGTKLEIKR
notes: as for B1
Consider B2, for which the “neutralization of HL-60 cell binding under physiological flow to soluble human E-selectin protein IC50 (nM)” value in assay [1] was determined as 17.9 nM. Also, in assay [2], the Kd turned out to be 21.6 nM, the koff was 0.00175 s⁻¹, the kon is 81000 M⁻¹ s⁻¹ and the t½ was determined as 397 s.

B3: anti-E-selectin antibody 0159 chimera (antibody, human IgG1, kappa, V domains shown)
VH: EVQLQQSGAELGKPGTSVKLSCKVSGYNIRSTYMHWVSQRPGKGLEWIGRIDPANGNTIYAEKFKRKATLTADTSSNTAYMQLSQLKSDDRAIYFCAMEVRVSFEYWGQGVMVTVSS
VL: DIQMTQSPSFLSASVGDRVTINCKASQNINKYLDWYQQKLGEGPKLLIYYTNNLHTGIPSRFSGSGSGTDFTLTISSLQPEDVATYFCLQHDSGYTFGAGTKLELKR
notes: as for B1
B3: in assay [1], the “neutralization of HL-60 cell binding under physiological flow to soluble human E-selectin protein IC50 (nM)” value turned out to be 21 nM. Besides, in assay [2], the affinity, expressed as Kd, was 324 nM; the koff worked out at 0.0371 s⁻¹; the association rate constant (kon) stood at 115000 M⁻¹ s⁻¹; the t½ is 18.7 s.

B4: anti-E-selectin antibody 0170 chimera (antibody, human IgG1, kappa, V domains shown)
VH: EVQLQQSGAELGKPGTSVKLSCKVSGYSIRSTYMHWVNQRPGKGLEWVGRIDPANGNTIYAERFKNKATLTADTSSNTAYMQLSQLKSDDTAIYFCAVEILGIFDYWGQGVMVTVSS
VL: DIQMTQSPSFLSASVGDRVTINCKASQNIDKYLDWYQQKLGEAPKLLMYNTNSLHTGIPSRFSGSGSGTDFTLTISSLQPEDVATYFCLQHNSGYTFGAGTKLELKR
notes: as for B1
For the molecule B4, the “neutralization of HL-60 cell binding under physiological flow to soluble human E-selectin protein IC50 (nM)” value in assay [1] is 74.2 nM. Moreover, in assay [2], the Kd is 628 nM, the koff came out at 0.0549 s⁻¹, the kon was found to be 87400 M⁻¹ s⁻¹ and the t½ was found to be 12.6 s.

B5: anti-E-selectin antibody 0180 chimera (antibody, human IgG1, kappa, V domains shown)
VH: EVQLQQSGAELGKPGTSVKLSCKVSGYKIRSSYMHWVNQRPGKGLEWIGRIDPANGNTIYGDKFKSKATLTSDTSSNTAYIQLSQLKSDDTAIYFCAIDIGTTFDYWGQGVMVTVSS
VL: DIQMTQSPSFLSASVGDRVTINCKASQHINRYLNWYQQKLGEAPKLLIYDANNLQTGIPSRFSGSGSGTDFTLTISSLQPEDVATYFCLQHNSWPNTFGAGTKLELKR
notes: as for B1
For the molecule B5, in assay [1], the “neutralization of HL-60 cell binding under physiological flow to soluble human E-selectin protein IC50 (nM)” value was 225 nM. For the same molecule, in assay [2], the affinity, expressed as Kd, was 2940 nM; the koff stood at 0.666 s⁻¹; the kon was 262000 M⁻¹ s⁻¹; the t½ amounted to 1.05 s.

B6: anti-E-selectin antibody 0164 chimera (antibody, human IgG1, kappa, V domains shown)
VH: EVQLQQSGAEFGKPGTSVKLSCKVSGYNIRSSYMHWVNQRPGKGLEWIGRIDPANGNTIYAEKFKIKAILTADSSSNTAYMQLSQLKSDDTAIYFCAMDLYSTSEYWGQGVMVTVSS
VL: DIQMTQSPSFLSASVGDRVTINCKTSQNINRYLNWYQQKLGEAPKLLIYNANSLQTGIPSRFSASGSGTDFTLTINSLQPEDVATYFCLQDNSWPLTFGSGTKLEIKR
notes: as for B1
Consider B6, for which the “neutralization of HL-60 cell binding under physiological flow to soluble human E-selectin protein IC50 (nM)” value in assay [1] was found to be 1.7 nM. In assay [2], this molecule returned an equilibrium dissociation constant (Kd) of 54.4 nM, a koff of 0.0113 s⁻¹, an on-rate (kon) of 207000 M⁻¹ s⁻¹ and a t½ of 61.6 s.

What is called Kd is a measure of binding affinity in units of concentration. Broadly, the koff is the rate constant with which the complex falls apart. Higher therefore signals a short-lived complex. Usually kon stands for the second-order rate constant of association. A higher kon goes with faster complex formation. As usually defined, the t½ is how long it takes for the measured level to halve. A high value points to slow loss.
